From patent US20180208648A1 (SCHOLAR ROCK, published 2018)

What was measured:
human latent GDF11 = biological target: T1, human latent GDF11 (human, UniProt O95390 25-407, biotinylated, site not stated); assay: BLI (ForteBio Octet)
T1 construct: also called hu latent GDF11
T1 sequence: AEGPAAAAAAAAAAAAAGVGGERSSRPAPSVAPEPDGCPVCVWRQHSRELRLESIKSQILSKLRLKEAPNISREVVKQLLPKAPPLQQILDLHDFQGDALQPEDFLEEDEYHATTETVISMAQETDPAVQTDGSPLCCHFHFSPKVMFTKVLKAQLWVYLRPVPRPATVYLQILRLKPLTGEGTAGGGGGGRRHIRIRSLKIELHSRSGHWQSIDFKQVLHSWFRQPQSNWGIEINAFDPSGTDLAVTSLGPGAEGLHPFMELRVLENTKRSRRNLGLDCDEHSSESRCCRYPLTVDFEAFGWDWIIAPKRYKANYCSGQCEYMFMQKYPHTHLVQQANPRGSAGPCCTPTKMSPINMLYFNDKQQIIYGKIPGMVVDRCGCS

human proGDF11 [1] = biological target: T2, human proGDF11 (human, UniProt O95390 25-407, biotinylated (NHS-PEG4-Biotin), site not stated); assay: BLI (ForteBio Octet)
T2 construct: Dimeric complex; also called hu proGDF11; GDF11 prodomain complex
T2 sequence: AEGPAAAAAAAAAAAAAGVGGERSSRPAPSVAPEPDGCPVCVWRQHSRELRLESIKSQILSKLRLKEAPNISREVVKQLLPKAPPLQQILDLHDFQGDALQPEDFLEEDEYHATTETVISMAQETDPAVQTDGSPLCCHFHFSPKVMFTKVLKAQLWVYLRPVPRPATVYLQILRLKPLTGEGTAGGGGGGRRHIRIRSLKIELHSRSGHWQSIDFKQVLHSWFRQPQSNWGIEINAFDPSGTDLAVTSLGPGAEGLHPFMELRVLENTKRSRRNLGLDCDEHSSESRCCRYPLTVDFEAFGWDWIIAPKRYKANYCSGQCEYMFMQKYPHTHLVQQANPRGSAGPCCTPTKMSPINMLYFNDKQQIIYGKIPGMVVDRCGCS

[2] = biological target: T3, human prodomain GDF11 ARM8 (human, biotinylated, site not stated); assay: ELISA, biotinylated antigen on neutravidin plate
T3 construct: GDF11 prodomain having the GDF8 arm domain; also called human GDF11 ARM8 prodomain
T3 chain: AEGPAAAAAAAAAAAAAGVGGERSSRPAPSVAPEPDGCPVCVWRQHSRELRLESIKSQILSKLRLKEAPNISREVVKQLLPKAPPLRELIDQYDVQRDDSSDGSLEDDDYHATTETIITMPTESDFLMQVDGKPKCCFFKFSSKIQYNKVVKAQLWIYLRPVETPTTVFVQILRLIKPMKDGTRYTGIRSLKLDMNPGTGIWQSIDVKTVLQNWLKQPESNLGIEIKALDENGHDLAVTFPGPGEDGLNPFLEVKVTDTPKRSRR
Description: (§1) Candidate clones were converted to human IgG1 format. Full-length IgG antibodies were further characterized by ELISA for binding to the human and murine pro- and latent-forms of myostatin and GDF11. Antibodies were also screened for binding to the Myostatin prodomain (SEQ ID NO: 85), proTGFDβ1 (human and murine), the mature growth factor of Myostatin (SEQ ID NO: 89), the GDF11 mature growth factor (SEQ ID NO: 90), and proActivin A (SEQ ID NO: 84). Chimeric constructs which swapped portions of the prodomains of Myostatin and GDF11 were designed and produced. For example proGDF11 arm8 (SEQ ID NO: 112) refers to GDF11 having the GDF8 arm domain, and prodomain GDF11 arm8 (SEQ ID NO: 114) refers to the GDF11 prodomain having the GDF8 arm domain. These chimeric proteins were assayed for interaction with screening antibodies by ELISA and allowed for the assessment of binding of antibodies to the ARM or straight jacket portions of the GDF11 prodomain complex. Antibodies were selected based on their cross-reactivity with pro- and latent human and murine GDF11, with no interactions with GDF8, Activin, or TGFβ proteins. Activin A is a homodimer of inhibin-beta A subunits. For example, Inhibin-beta A can heterodimerize with other proteins to produce different Activin proteins.
(§2) Enzyme-linked immunosorbent assay (ELISA) analysis is carried out to assess antibody binding. 96-well ELISA assay plates are coated with neutravidin, a deglycosylated version of streptavidin with a more neutral pH. Target proteins are expressed with or without histidine (His) tags and subjected to biotinylation. Biotinylated target proteins are incubated with neutravidin-coated ELISA assay plates for two hours at room temperature and unbound proteins are removed by washing three times with wash buffer (either 25 mM Tris, 150 mM NaCl, 0.05% TWEEN®-20, or 20 mM Hepes pH 7.5, 500 mM NaCl, 0.05% TWEEN®-20). Primary antibodies being tested are added to each well and allowed to incubate at room temperature for 1 hour or more. Unbound antibody is then removed by washing three times with wash buffer. Secondary antibodies capable of binding to primary antibodies being tested and conjugated with detectable labels are then incubated in each well for 30 minutes at room temperature. Unbound secondary antibodies are removed by washing three times with wash buffer.

human proGDF11 ARM8 = biological target: T4, human proGDF11 ARM8 (human, biotinylated, site not stated); assay: ELISA, biotinylated antigen on neutravidin plate
T4 construct: GDF11 having the GDF8 arm domain
T4 chain: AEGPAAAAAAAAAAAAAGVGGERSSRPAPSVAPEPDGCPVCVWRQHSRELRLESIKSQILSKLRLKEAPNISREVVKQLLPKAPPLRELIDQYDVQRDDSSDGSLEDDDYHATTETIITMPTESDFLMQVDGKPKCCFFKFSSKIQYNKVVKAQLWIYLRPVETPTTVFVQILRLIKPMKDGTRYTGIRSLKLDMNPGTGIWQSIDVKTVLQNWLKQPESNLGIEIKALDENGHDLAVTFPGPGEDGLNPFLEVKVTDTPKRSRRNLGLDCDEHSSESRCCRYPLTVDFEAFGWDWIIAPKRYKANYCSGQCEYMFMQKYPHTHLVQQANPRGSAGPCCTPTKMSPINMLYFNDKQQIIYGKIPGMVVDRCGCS
Description: as §1, §2

human mature GDF11 = biological target: T5, human mature GDF11 (human, UniProt O95390 299-407, biotinylated, site not stated); assay: ELISA, biotinylated antigen on neutravidin plate
T5 construct: Growth factor domain; also called GDF11 mature growth factor
T5 sequence: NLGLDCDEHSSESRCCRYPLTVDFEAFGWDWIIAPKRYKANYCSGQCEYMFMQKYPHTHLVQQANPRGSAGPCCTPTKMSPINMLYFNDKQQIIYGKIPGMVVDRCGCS
Description: as §1, §2

human proGDF11 [3] = biological target: T2, human proGDF11; assay: cell-based or functional assay
murine proGDF11 = biological target: T6, murine proGDF11 (mouse, UniProt Q9Z1W4 25-405, biotinylated, site not stated); assay: cell-based or functional assay
T6 sequence: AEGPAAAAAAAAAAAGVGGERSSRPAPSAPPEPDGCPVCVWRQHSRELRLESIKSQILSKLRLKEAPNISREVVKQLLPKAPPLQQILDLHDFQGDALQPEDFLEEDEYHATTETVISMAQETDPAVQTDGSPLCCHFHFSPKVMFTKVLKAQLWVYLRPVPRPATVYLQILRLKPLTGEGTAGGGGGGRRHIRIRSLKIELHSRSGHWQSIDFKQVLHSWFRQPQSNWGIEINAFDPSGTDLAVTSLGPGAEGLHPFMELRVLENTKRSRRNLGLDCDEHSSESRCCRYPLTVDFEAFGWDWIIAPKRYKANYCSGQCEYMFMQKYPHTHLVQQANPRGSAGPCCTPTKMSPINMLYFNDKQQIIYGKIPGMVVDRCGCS

human proGDF11 [4] = biological target: T2, human proGDF11; assay: cell-based or functional assay; remark: listed apart in the source

| Kd (human latent GDF11) [nM] | Kd (human proGDF11 [1]) [nM] | binding result [2] | binding result (human proGDF11 ARM8) | binding result (human mature GDF11) | EC50, proGDF11 activation assay at 50 nM proGDF11 (human proGDF11 [3]) [nM] | Murine proGDF11 % inhibition (proGDF11 activation assay, CAGA luciferase reporter in 293T cells) (murine proGDF11) [%] | Human proGDF11 % Inhibition (proGDF11 activation assay, CAGA luciferase reporter in 293T cells) (human proGDF11 [4]) [%] | Binder |
| --- | --- | --- | --- | --- | --- | --- | --- | --- |
| 0.27 | 0.91 | no binding | no binding | no binding | 27.5 | 95 | 100 | GDF11 Inh-2 (antibody, V domains shown, also called Clone GDF11 Inh-2) VH: not shown VL: DIQMTQSPSSLSASVGDRVTITCQASQDISNYLNWYQQKPGKAPKLLIYDASNLETGVPSRFSGSGSGTDFTLTISSLQPEDVATYYCQKYSTAPLTFGGGTKVEIKR |
| 0.31 | 1.08 | no binding | no binding | no binding | 26.7 | 87 | 94 | GDF11 Inh-4 (antibody, V domains shown, also called Clone GDF11 Inh-4) VH: QVQLVQSGAEVKKPGASVKVSCKASGYTFTSYGISWVRQAPGQGLEWMGWISAYNGNTNYAQKLQGRVTMTTDTSTSTAYMELRSLRSDDTAVYYCARTPPLWFGEYGAFDIWGQGAMVTVSS VL: DIQMTQSPSSLSASVGDRVTITCQASQDISNYLNWYQQKPGKAPKLLIYDASNLETGVPSRFSGSGSGTDFTLTISSLQPDDFATYYCQQSYTTPITFGQGTRLEIKR |
